Reference: PMC13544220, “Glycemic and bodyweight effects of GIPR coding variation reflect differences in surface expression and intrinsic functional impairment” (Science Advances, 2026)

Tests used:
Assay type in all cases: cell-based, human
[1] = tested on: wild-type and variant SNAP-GIPR; assay: Surface SNAP-GIPR expression (SNAP-tag labelling) in AD293 cells; details: for AD293 Surface: Fig S3E, mean; for Surface SNAP-GIPR expression: sheet Fig 1C;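 for all read-outs here: scaled to the experimental average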
Procedure: (§1) Twenty-four hours before the experiment, AD293 or INS-1 cells were reverse transfected with GIPR variant or wild-type plasmids using Lipofectamine 2000 in 96-well, clear-bottom, black microplates precoated with poly-D-lysine. All variants were tested in parallel on each occasion to control for transfection efficiency differences between experiments. Cells were then labeled using the cell-impermeant probe SNAP-Surface Alexa Fluor 647 (500 nM, New England Biolabs, USA) for 10 min at room temperature to label only surface GIPR. […] Several fields of view (FOVs) were acquired within each well using a 20X, 0.75–numerical aperture (NA) air objective. Surface GIPR fluorescence was quantified after flat-field correction using BaSiC ([72]) and segmenting using Phantast ([73]), which generates a mask based on the phase contrast images to demarcate cell versus noncell. Wide-field imaging of the surface-specific labeling achieved by SNAP-Surface probes means that surface expression can be established from whole-cell fluorescence, after subtracting nonspecific fluorescence from a separate well containing nontransfected cells processed in parallel from the same experiment. Data were normalized by dividing by the average specific signal across each experiment, or by the wild-type value, as indicated in the figure legends.

[2] = tested on: wild-type and variant SNAP-GIPR; assay: Surface SNAP-GIPR expression (SNAP-tag labelling) in INS-1 cells; details: Fig 4G; Mean
Procedure: as §1

[3] = tested on: wild-type and variant SNAP-GIPR; assay: Single-concentration GIP cAMP response by HTRF in AD293 cells; details: Fig S3F, HTRF, mean;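 note: ratio to experiment-wide average response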
Procedure: (§2) All variants were tested in parallel on each occasion to control for transfection efficiency differences between experiments.

[4] = tested on: wild-type and variant SNAP-GIPR; assay: Single-concentration GIP cAMP response by HTRF in INS-1 cells; details: Fig S3E, mean
Procedure: as §2

[5] = tested on: wild-type and variant SNAP-GIPR; assay: cADDis cAMP imaging in AD293 cells, ensemble, expression-matched and per decile; details: Fig S3F, cADDis, mean
Procedure: AD293 cells were reverse transfected with the GIPR variant or wild-type plasmids using Lipofectamine 2000 and cotransduced with the cADDis Green Up BacMam (10 μl per well, Montana Molecular, USA), in 96-well, poly-D-lysine–coated microplates. All variants were tested in parallel on each occasion to control for transfection efficiency differences between experiments. After 24 hours, cells were labeled using 500 nM SNAP-Surface Alexa Fluor 647 for 10 min at room temperature. Cells were washed three times and then imaged in KRBH buffer containing 6 mM glucose and 0.1% BSA. Imaging was performed at 37°C by wide-field microscopy using the same microscope as in the “Assessment of surface GIPR expression by SNAP-tag labeling in cell lines” section, with 9 FOVs for both cADDis and SNAP-Surface fluorescence acquired from each well using a 10X, 0.45 NA air objective. […] Flat-field correction was performed using BaSiC ([72]), drift correction was performed using SIFT, and a maximum intensity projection of the cADDis channel was used to segment individual cells. cAMP responses were determined by quantifying the cADDis fluorescence intensity for each cell at each time point. Nonviable cells or noncell objects were excluded according to criteria for allowable cell IBMX/FSK responses. […] The cADDis mask was then used to quantify the SNAP-Surface signal from each cell. Wild-type SNAP-Surface readings were split into deciles, and these deciles were subsequently used to categorize variant-transfected cells to match against the wild type. After trimming the top and bottom deciles, the mean was taken of each decile mean for surface expression level or cAMP response, which achieved matched expression levels by effectively applying an inverse weighting to counteract differences in cell number in each decile for different variants. Ensemble expression levels or cAMP responses were calculated without regard to deciles. Variant cADDis responses were also analyzed within their own surface expression deciles.

[6] = tested on: wild-type and variant SNAP-GIPR; assay: Constitutive and agonist-mediated internalization, reversible SNAP-tag labelling, AD293 cells; parameters: key to Internalisation, Vehicle / Internalisation, +GIP / Internalisation, GIP-only: % internalization: residual fluorescence after Mesna vs pre-Mesna; Surface expression: unit not given here; details: Mean
Procedure: (§3) Twenty-four hours before the experiment, AD293 or INS-1 cells were reverse transfected with GIPR variant or wild-type plasmids using Lipofectamine 2000 in 96-well, clear-bottom, black microplates precoated with poly-D-lysine. All variants were tested in parallel on each occasion to control for transfection efficiency differences between experiments. […] Media were then removed, cells washed with PBS and then placed in TNE buffer (pH 8.6) for imaging. […] After 10 min, the well was reimaged again to detect remaining fluorescence from internalized GIPR. Images were analyzed as in the “Assessment of surface GIPR expression by SNAP-tag labeling in cell lines” section, with the residual specific fluorescence after Mesna treatment expressed relative to the pre-Mesna value to establish percentage internalization.

[7] = tested on: wild-type and variant SNAP-GIPR; assay: Constitutive and agonist-mediated internalization, reversible SNAP-tag labelling, INS-1 cells; parameters: key to Internalisation, GIP-only / Internalisation, Vehicle / Internalisation, +GIP: % internalization: residual fluorescence after Mesna vs pre-Mesna; details: Mean
Procedure: as §3

B1: A268V (protein, UniProt P48546 22-466, looked up, variant A268V)
Gastric inhibitory …: RAETGSKGQTAGELYQRWERYRRECQETLAAAEPPSGLACNGSFDMYVCWDYAAPNATARASCPWYLPWHHHVAAGFVLRQCGSDGQWGLWRDHTQCENPEKNEAFLDQRLILERLQVMYTVGYSLSLATLLLALLILSLFRRLHCTRNYIHINLFTSFMLRAAAILSRDRLLPRPGPYLGDQALALWNQALAACRTAQIVTQYCVGANYTWLLVEGVYLHSLLVLVGGSEEGHFRYYLLLGWGAPVLFVIPWVIVRYLYENTQCWERNEVKAIWWIIRTPILMTILINFLIFIRILGILLSKLRTRQMRCRDYRLRLARSTLTLVPLLGVHEVVFAPVTEEQARGALRFAKLGFEIFLSSFQGFLVSVLYCFINKEVQSEIRRGWHHCRLRRSLGEEQRQLPERAFRALPSGSGPGEVPTSRGLSSGTLPGPGNEASRELESYC
[1]; column repeated, paired with cAMP 100 nM
  AD293 Surface: 1.382
[1]; paired with cAMP 100 pM
  AD293 Surface: 1.382
[1]; replicate 1
  Surface SNAP-GIPR expression: 1.352
[1]; replicate 2
  Surface SNAP-GIPR expression: 1.469
[1]; replicate 3
  Surface SNAP-GIPR expression: 1.684
[1]; replicate 4
  Surface SNAP-GIPR expression: 1.15
[1]; replicate 5
  Surface SNAP-GIPR expression: 1.545
[1]; replicate 6
  Surface SNAP-GIPR expression: 1.48
[1]; replicate 7
  Surface SNAP-GIPR expression: 1.735
[1]; replicate 8
  Surface SNAP-GIPR expression: 0.9896
[1]; replicate 9
  Surface SNAP-GIPR expression: 1.756
[1]; replicate 10
  Surface SNAP-GIPR expression: 1.344
[1]; replicate 11
  Surface SNAP-GIPR expression: 1.392
[1]; replicate 12
  Surface SNAP-GIPR expression: 1.329
[1]; replicate 13
  Surface SNAP-GIPR expression: 1.75
[1]; replicate 14
  Surface SNAP-GIPR expression: 1.057
[1]; replicate 15
  Surface SNAP-GIPR expression: 1.196
[1]; replicate 16
  Surface SNAP-GIPR expression: 1.17
[1]; replicate 17
  Surface SNAP-GIPR expression: 1.366
[1]; replicate 18
  Surface SNAP-GIPR expression: 1.286
[1]; replicate 19
  Surface SNAP-GIPR expression: 1.239
[1]; replicate 20
  Surface SNAP-GIPR expression: 1.203
[1]; replicate 21
  Surface SNAP-GIPR expression: 1.125
[1]; replicate 22
  Surface SNAP-GIPR expression: 1.189
[1]; replicate 23
  Surface SNAP-GIPR expression: 1.374
[1]; replicate 24
  Surface SNAP-GIPR expression: 1.314
[1]; replicate 25
  Surface SNAP-GIPR expression: 1.303
[1]; replicate 26
  Surface SNAP-GIPR expression: 1.296
[1]; replicate 27
  Surface SNAP-GIPR expression: 1.545
[1]; replicate 28
  Surface SNAP-GIPR expression: 1.175
[1]; replicate 29
  Surface SNAP-GIPR expression: 1.642
[1]; replicate 30
  Surface SNAP-GIPR expression: 1.674
[1]; replicate 31
  Surface SNAP-GIPR expression: 1.459
[1]; replicate 32
  Surface SNAP-GIPR expression: 1.555
[1]; replicate 33
  Surface SNAP-GIPR expression: 1.663
[1]; replicate 34
  Surface SNAP-GIPR expression: 1.328
[1]; replicate 35
  Surface SNAP-GIPR expression: 1.277
[1]; replicate 36
  Surface SNAP-GIPR expression: 1.382
[1]; replicate 37
  Surface SNAP-GIPR expression: 1.6
[1]; replicate 38
  Surface SNAP-GIPR expression: 1.461
[1]; replicate 39
  Surface SNAP-GIPR expression: 1.123
[1]; replicate 40
  Surface SNAP-GIPR expression: 1.335
[1]; replicate 41
  Surface SNAP-GIPR expression: 1.367
[2]
  Surface expression: 1.2654
[3]; AD293, 100 pM
  AD293 100 pM HTRF: 2.332
[3]; AD293, 100 nM
  AD293 100 nM HTRF: 1.283
[4]
  INS-1 cAMP (100 nM): 1.343
[5]; AD293, 100 pM
  AD293 100 pM cADDis: 34.2441
[5]; AD293, 100 nM
  AD293 100 nM cADDis: 37.42
[6]; Fig 4E, GIP 100 nM
  +GIP internalisation (100 nM): 0.7963
  GIP-specific internalisation (100 nM): 0.2682
[6]; Fig 4E
  Constitutive internalisation (100 nM): 0.5281
  Surface expression: 1.472
[6]; Fig S4C, AD293
  Internalisation, +GIP: 57.341
  Internalisation, GIP-only: 19.4051
  Internalisation, Vehicle: 37.9359
[7]; Fig 4G, GIP 100 nM
  +GIP internalisation (100 nM): 0.6195
  GIP-specific internalisation (100 nM): 0.1687
[7]; Fig 4G
  Constitutive internalisation (100 nM): 0.4508
[7]; Fig S4C, INS-1
  Internalisation, +GIP: 51.1233
  Internalisation, GIP-only: 13.9983
  Internalisation, Vehicle: 37.125
